Reference: patent US20230181714A1

B1: VEE-52B (antibody, V domains shown)
VH: QVHLLQSGAEVKKPGASVKVSCKSSGHTFASHGISWVRQAPGQGLEWMGWISVYNGNTNYAQKFQGRVIMTTDTPTSTAYMELRSLRSDDTAVYYCAKDIPSASYTMDVWGEGTTVTV
VL: QSALTQPRSVSGSPGQSVTISCTGTSSDIGRYDYVSWYHQHPGKAPKLMIYDVTKRPSGVPDRFSGSKSGNTASLTISGLHADDEADYYCCSYAGSFYVFGTGTKVTVL
B2: VEE-81 (antibody, V domains shown)
VH: QVQLVQSGAEVKKPGASVKVSCKASGYTFTTYYIHWVRQAPGRGLEWMGIINSSGYNTYYAQKFQGRVTMTRDTSTSTVDMELSSLRSEDTAVYYCATSITTRAFDLWGQGTLVTVSS
VL: EIVLTQSPGTLSLSPGERVTLSCRASQSVSSIYLAWYQQRPGQAPRLLIYGASSRATGIPDRFSGSGSGTDFTLTIRRLEPEDFAVYYCQQYGSSPYTFGQGTKLEIK

Experiments:
[1] = target: VEEV virus-like particles (VLPs) (Venezuelan equine encephalitis virus); assay: ELISA, binding reactivity (FIG. 1)
[2] = target: recombinant EEEV E1 glycoprotein (Eastern equine encephalitis virus); assay: ELISA, binding reactivity (FIG. 1)

Sequence of VEEV virus-like particles (VLPs) (Venezuelan equine encephalitis virus) (P05674 335-757, chain 1 of 2): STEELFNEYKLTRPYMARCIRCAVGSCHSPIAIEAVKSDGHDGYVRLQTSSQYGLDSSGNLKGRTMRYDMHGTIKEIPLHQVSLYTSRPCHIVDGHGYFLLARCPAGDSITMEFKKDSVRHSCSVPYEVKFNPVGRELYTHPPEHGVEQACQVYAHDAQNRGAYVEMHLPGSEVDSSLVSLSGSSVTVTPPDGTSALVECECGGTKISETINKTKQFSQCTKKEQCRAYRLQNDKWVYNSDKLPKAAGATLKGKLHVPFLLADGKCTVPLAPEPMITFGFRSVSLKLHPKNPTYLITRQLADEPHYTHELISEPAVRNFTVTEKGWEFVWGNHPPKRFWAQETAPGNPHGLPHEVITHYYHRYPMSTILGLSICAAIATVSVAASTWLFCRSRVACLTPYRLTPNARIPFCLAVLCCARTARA
Sequence of VEEV virus-like particles (VLPs) (Venezuelan equine encephalitis virus) (P05674 813-1254, chain 2 of 2): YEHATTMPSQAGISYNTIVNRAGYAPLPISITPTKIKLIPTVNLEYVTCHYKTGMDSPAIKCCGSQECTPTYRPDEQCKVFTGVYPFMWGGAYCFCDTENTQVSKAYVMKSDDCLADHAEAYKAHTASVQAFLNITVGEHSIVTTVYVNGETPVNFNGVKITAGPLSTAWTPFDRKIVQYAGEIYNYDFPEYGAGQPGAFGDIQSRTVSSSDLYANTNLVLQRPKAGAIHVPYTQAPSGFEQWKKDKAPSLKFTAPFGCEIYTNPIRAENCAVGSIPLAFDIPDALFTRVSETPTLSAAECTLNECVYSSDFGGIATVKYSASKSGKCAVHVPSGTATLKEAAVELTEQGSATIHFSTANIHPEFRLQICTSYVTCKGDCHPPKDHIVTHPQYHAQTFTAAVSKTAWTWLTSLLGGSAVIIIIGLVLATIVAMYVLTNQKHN

| Binder | EC50 [1] [µg/mL] | EC50 [2] [µg/mL] |
| --- | --- | --- |
| B1 | < 0.02 | < 0.02 |
| B2 | < 0.02 | < 0.02 |
